T1: DFNB31_3, Q9P202
T1 sequence (Q9P202 811-907, limits assumed, looked up): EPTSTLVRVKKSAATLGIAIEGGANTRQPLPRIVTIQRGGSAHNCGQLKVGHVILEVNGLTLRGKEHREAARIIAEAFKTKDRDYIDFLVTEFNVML

T2: DLG3_1, Q92796
T2 sequence (Q92796 125-227, limits assumed, looked up): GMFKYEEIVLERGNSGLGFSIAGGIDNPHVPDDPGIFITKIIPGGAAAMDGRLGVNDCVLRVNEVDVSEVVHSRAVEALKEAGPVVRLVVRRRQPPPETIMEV

T3: GRIP1_4, Q9Y3R0
T3 sequence (Q9Y3R0 467-571, limits assumed, looked up): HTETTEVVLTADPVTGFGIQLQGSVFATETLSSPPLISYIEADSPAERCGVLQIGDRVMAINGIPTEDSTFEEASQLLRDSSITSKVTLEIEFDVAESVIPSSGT

T4: GRIP1_7, Q9Y3R0
T4 sequence (Q9Y3R0 999-1096, limits assumed, looked up): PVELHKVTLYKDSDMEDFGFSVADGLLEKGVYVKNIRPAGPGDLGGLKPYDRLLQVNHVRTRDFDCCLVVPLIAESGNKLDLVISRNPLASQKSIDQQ

T5: LNX2_2, Q8N448
T5 sequence (Q8N448 334-432, limits assumed, looked up): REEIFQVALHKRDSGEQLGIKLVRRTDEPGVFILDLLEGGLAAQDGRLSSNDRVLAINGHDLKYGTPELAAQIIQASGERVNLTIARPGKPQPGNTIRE

T6: LRRC7, Q96NW7
T6 sequence (Q96NW7 1440-1537, limits assumed, looked up): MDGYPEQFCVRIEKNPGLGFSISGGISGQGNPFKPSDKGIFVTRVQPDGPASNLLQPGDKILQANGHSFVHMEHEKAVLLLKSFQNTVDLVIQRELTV

T7: MPDZ_10, O75970
T7 sequence (O75970 1624-1722, limits assumed, looked up): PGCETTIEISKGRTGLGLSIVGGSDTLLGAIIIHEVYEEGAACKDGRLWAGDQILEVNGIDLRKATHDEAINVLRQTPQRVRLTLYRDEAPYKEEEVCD

T8: PARD3B_1, Q8TEW8
T8 sequence (Q8TEW8 196-299, limits assumed, looked up): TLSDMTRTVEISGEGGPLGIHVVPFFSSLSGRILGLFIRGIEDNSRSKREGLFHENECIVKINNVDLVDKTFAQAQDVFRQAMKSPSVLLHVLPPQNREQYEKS

T9: PCLO, Q9Y6V0
T9 sequence (Q9Y6V0 4491-4600, limits assumed, looked up): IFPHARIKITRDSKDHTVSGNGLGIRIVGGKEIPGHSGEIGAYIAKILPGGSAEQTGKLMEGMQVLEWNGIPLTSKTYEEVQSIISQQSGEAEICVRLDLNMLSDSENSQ

T10: SIPA1L2, Q9P2F8
T10 sequence (Q9P2F8 945-1036, limits assumed, looked up): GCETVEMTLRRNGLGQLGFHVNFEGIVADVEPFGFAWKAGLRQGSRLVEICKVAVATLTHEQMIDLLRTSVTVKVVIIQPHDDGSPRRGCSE

T11: TIAM2, Q8IVF5
T11 sequence (Q8IVF5 885-986, limits assumed, looked up): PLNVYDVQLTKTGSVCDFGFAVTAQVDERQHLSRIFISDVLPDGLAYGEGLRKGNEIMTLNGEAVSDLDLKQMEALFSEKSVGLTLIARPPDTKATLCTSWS


Molecular target: AHNAK1, Q09666
Sequence (Q09666 4-100): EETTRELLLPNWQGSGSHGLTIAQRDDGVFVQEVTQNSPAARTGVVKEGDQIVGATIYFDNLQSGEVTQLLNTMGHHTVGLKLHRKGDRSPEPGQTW
Test: holdup assay
Design: key: below the threshold = too weak to quantify, mostly under pKd 3.1 to 4
Details: plain residues with an end cap or a label only (N-terminal biotin on a linker: ado-ado)

pKd | Binder
below the threshold | QSPPNIYYKV [EFNB3, Q15768]
below the threshold | NASRTRITFV [MCM7, P33993]

Molecular target: T1, DFNB31_3, Q9P202
Test: holdup assay
Design: key: below the threshold = too weak to quantify, mostly under pKd 3.1 to 4
Details: plain residues with an end cap or a label only (N-terminal biotin on a linker: ado-ado)

pKd | Binder
4.1 | QSPPNIYYKV [EFNB3, Q15768]
4.74 | NASRTRITFV [MCM7, P33993]

Molecular target: DLG1_1, Q12959
Test: holdup assay
Design: key: below the threshold = too weak to quantify, mostly under pKd 3.1 to 4
Details: plain residues with an end cap or a label only (N-terminal biotin on a linker: ado-ado)

pKd | Binder
below the threshold | QSPPNIYYKV [EFNB3, Q15768]
4.83 | NASRTRITFV [MCM7, P33993]

Molecular target: DLG2_2, Q15700
Sequence (Q15700 189-283): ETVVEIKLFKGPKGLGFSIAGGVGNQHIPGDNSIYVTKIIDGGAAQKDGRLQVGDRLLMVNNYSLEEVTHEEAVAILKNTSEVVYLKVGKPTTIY
Test: holdup assay
Design: key: below the threshold = too weak to quantify, mostly under pKd 3.1 to 4
Details: plain residues with an end cap or a label only (N-terminal biotin on a linker: ado-ado)

pKd | Binder
below the threshold | QSPPNIYYKV [EFNB3, Q15768]
4.73 | NASRTRITFV [MCM7, P33993]

Molecular target: T2, DLG3_1, Q92796
Test: holdup assay
Design: key: below the threshold = too weak to quantify, mostly under pKd 3.1 to 4
Details: plain residues with an end cap or a label only (N-terminal biotin on a linker: ado-ado)

pKd | Binder
below the threshold | QSPPNIYYKV [EFNB3, Q15768]
4.19 | NASRTRITFV [MCM7, P33993]

Molecular target: DLG4_2, P78352
Sequence (P78352 155-259): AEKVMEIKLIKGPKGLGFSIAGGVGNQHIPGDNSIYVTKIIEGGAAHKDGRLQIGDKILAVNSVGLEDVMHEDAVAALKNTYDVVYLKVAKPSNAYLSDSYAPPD
Test: holdup assay
Design: key: below the threshold = too weak to quantify, mostly under pKd 3.1 to 4
Details: plain residues with an end cap or a label only (N-terminal biotin on a linker: ado-ado)

pKd | Binder
3.54 | QSPPNIYYKV [EFNB3, Q15768]
5.12 | NASRTRITFV [MCM7, P33993]

Molecular target: GRID2IP_1, A4D2P6
Sequence (A4D2P6 1-87): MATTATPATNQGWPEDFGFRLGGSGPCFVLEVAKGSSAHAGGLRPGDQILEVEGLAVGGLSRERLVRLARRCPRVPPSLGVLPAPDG
Test: holdup assay
Design: key: below the threshold = too weak to quantify, mostly under pKd 3.1 to 4
Details: plain residues with an end cap or a label only (N-terminal biotin on a linker: ado-ado)

pKd | Binder
below the threshold | QSPPNIYYKV [EFNB3, Q15768]
below the threshold | NASRTRITFV [MCM7, P33993]

Molecular target: T3, GRIP1_4, Q9Y3R0
Test: holdup assay
Design: key: below the threshold = too weak to quantify, mostly under pKd 3.1 to 4
Details: plain residues with an end cap or a label only (N-terminal biotin on a linker: ado-ado)

pKd | Binder
below the threshold | QSPPNIYYKV [EFNB3, Q15768]
below the threshold | NASRTRITFV [MCM7, P33993]

Molecular target: T4, GRIP1_7, Q9Y3R0
Test: holdup assay
Design: key: below the threshold = too weak to quantify, mostly under pKd 3.1 to 4
Details: plain residues with an end cap or a label only (N-terminal biotin on a linker: ado-ado)

pKd | Binder
3.67 | QSPPNIYYKV [EFNB3, Q15768]
below the threshold | NASRTRITFV [MCM7, P33993]

Molecular target: HTRA1, Q92743
Sequence (Q92743 360-477): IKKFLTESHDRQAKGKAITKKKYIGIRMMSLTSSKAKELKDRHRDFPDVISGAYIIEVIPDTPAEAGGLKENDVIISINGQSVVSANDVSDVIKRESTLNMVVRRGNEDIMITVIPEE
Test: holdup assay
Design: key: below the threshold = too weak to quantify, mostly under pKd 3.1 to 4
Details: plain residues with an end cap or a label only (N-terminal biotin on a linker: ado-ado)

pKd | Binder
4.49 | QSPPNIYYKV [EFNB3, Q15768]
4.99 | NASRTRITFV [MCM7, P33993]

Molecular target: Inadl_1, Q8NI35
Sequence (Q8NI35 113-229): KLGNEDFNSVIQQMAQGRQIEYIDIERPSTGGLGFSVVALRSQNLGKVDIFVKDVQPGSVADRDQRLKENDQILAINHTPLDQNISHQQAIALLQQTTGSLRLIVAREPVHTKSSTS
Test: holdup assay
Design: key: below the threshold = too weak to quantify, mostly under pKd 3.1 to 4
Details: plain residues with an end cap or a label only (N-terminal biotin on a linker: ado-ado)

pKd | Binder
3.99 | QSPPNIYYKV [EFNB3, Q15768]
below the threshold | NASRTRITFV [MCM7, P33993]

Molecular target: LAP2, Q96RT1
Sequence (Q96RT1 other isoform, or with tags, fused parts or gaps): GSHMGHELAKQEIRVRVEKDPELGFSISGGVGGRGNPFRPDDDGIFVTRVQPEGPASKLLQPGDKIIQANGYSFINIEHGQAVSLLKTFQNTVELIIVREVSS
Test: holdup assay
Design: key: below the threshold = too weak to quantify, mostly under pKd 3.1 to 4
Details: plain residues with an end cap or a label only (N-terminal biotin on a linker: ado-ado)

pKd | Binder
below the threshold | QSPPNIYYKV [EFNB3, Q15768]
3.49 | NASRTRITFV [MCM7, P33993]

Molecular target: T5, LNX2_2, Q8N448
Test: holdup assay
Design: key: below the threshold = too weak to quantify, mostly under pKd 3.1 to 4
Details: plain residues with an end cap or a label only (N-terminal biotin on a linker: ado-ado)

pKd | Binder
4.27 | QSPPNIYYKV [EFNB3, Q15768]
5.43 | NASRTRITFV [MCM7, P33993]

Molecular target: T6, LRRC7, Q96NW7
Test: holdup assay
Design: key: below the threshold = too weak to quantify, mostly under pKd 3.1 to 4
Details: plain residues with an end cap or a label only (N-terminal biotin on a linker: ado-ado)

pKd | Binder
below the threshold | QSPPNIYYKV [EFNB3, Q15768]
below the threshold | NASRTRITFV [MCM7, P33993]

Molecular target: MAGI2_3, Q86UL8
Sequence (Q86UL8 600-682): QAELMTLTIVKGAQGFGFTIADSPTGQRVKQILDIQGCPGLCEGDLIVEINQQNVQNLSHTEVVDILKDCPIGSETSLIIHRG
Test: holdup assay
Design: key: below the threshold = too weak to quantify, mostly under pKd 3.1 to 4
Details: plain residues with an end cap or a label only (N-terminal biotin on a linker: ado-ado)

pKd | Binder
below the threshold | QSPPNIYYKV [EFNB3, Q15768]
4.99 | NASRTRITFV [MCM7, P33993]

Molecular target: MAGI2_6, Q86UL8
Sequence (Q86UL8 1141-1229): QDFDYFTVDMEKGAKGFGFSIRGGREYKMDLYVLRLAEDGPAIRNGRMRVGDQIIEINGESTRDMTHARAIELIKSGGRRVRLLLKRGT
Test: holdup assay
Design: key: below the threshold = too weak to quantify, mostly under pKd 3.1 to 4
Details: plain residues with an end cap or a label only (N-terminal biotin on a linker: ado-ado)

pKd | Binder
below the threshold | QSPPNIYYKV [EFNB3, Q15768]
4.16 | NASRTRITFV [MCM7, P33993]

Molecular target: T7, MPDZ_10, O75970
Test: holdup assay
Design: key: below the threshold = too weak to quantify, mostly under pKd 3.1 to 4
Details: plain residues with an end cap or a label only (N-terminal biotin on a linker: ado-ado)

pKd | Binder
below the threshold | QSPPNIYYKV [EFNB3, Q15768]
4.29 | NASRTRITFV [MCM7, P33993]

Molecular target: NHERF4_2, Q86UT5
Sequence (Q86UT5 220-308): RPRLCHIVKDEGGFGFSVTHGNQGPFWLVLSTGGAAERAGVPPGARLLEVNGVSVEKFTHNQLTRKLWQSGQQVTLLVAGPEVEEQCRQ
Test: holdup assay
Design: key: below the threshold = too weak to quantify, mostly under pKd 3.1 to 4
Details: plain residues with an end cap or a label only (N-terminal biotin on a linker: ado-ado)

pKd | Binder
below the threshold | QSPPNIYYKV [EFNB3, Q15768]
below the threshold | NASRTRITFV [MCM7, P33993]

Molecular target: NOS1, P29475
Sequence (P29475 9-101): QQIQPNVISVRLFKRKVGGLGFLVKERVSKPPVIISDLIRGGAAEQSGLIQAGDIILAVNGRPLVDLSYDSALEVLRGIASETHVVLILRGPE
Test: holdup assay
Design: key: below the threshold = too weak to quantify, mostly under pKd 3.1 to 4
Details: plain residues with an end cap or a label only (N-terminal biotin on a linker: ado-ado)

pKd | Binder
3.53 | QSPPNIYYKV [EFNB3, Q15768]
3.84 | NASRTRITFV [MCM7, P33993]

Molecular target: T8, PARD3B_1, Q8TEW8
Test: holdup assay
Design: key: below the threshold = too weak to quantify, mostly under pKd 3.1 to 4
Details: plain residues with an end cap or a label only (N-terminal biotin on a linker: ado-ado)

pKd | Binder
3.77 | QSPPNIYYKV [EFNB3, Q15768]
below the threshold | NASRTRITFV [MCM7, P33993]

Molecular target: T9, PCLO, Q9Y6V0
Test: holdup assay
Design: key: below the threshold = too weak to quantify, mostly under pKd 3.1 to 4
Details: plain residues with an end cap or a label only (N-terminal biotin on a linker: ado-ado)

pKd | Binder
below the threshold | QSPPNIYYKV [EFNB3, Q15768]
below the threshold | NASRTRITFV [MCM7, P33993]

Molecular target: PDLIM1, O00151
Sequence (O00151 1-87): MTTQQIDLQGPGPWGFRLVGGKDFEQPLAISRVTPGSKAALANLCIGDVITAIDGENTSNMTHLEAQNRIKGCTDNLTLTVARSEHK
Test: holdup assay
Design: key: below the threshold = too weak to quantify, mostly under pKd 3.1 to 4
Details: plain residues with an end cap or a label only (N-terminal biotin on a linker: ado-ado)

pKd | Binder
below the threshold | QSPPNIYYKV [EFNB3, Q15768]
below the threshold | NASRTRITFV [MCM7, P33993]

Molecular target: SCRIB_2, Q14160
Sequence (Q14160 857-960): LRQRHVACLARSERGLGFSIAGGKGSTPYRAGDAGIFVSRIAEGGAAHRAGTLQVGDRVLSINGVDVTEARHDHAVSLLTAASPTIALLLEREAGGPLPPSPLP
Test: holdup assay
Design: key: below the threshold = too weak to quantify, mostly under pKd 3.1 to 4
Details: plain residues with an end cap or a label only (N-terminal biotin on a linker: ado-ado)

pKd | Binder
below the threshold | QSPPNIYYKV [EFNB3, Q15768]
below the threshold | NASRTRITFV [MCM7, P33993]

Molecular target: SCRIB_3, Q14160
Sequence (Q14160 999-1103): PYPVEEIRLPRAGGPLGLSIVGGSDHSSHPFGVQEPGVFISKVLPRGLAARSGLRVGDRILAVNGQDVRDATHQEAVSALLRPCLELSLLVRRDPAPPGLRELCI
Test: holdup assay
Design: key: below the threshold = too weak to quantify, mostly under pKd 3.1 to 4
Details: plain residues with an end cap or a label only (N-terminal biotin on a linker: ado-ado)

pKd | Binder
below the threshold | QSPPNIYYKV [EFNB3, Q15768]
4.37 | NASRTRITFV [MCM7, P33993]

Molecular target: T10, SIPA1L2, Q9P2F8
Test: holdup assay
Design: key: below the threshold = too weak to quantify, mostly under pKd 3.1 to 4
Details: plain residues with an end cap or a label only (N-terminal biotin on a linker: ado-ado)

pKd | Binder
below the threshold | QSPPNIYYKV [EFNB3, Q15768]
below the threshold | NASRTRITFV [MCM7, P33993]

Molecular target: T11, TIAM2, Q8IVF5
Test: holdup assay
Design: key: below the threshold = too weak to quantify, mostly under pKd 3.1 to 4
Details: plain residues with an end cap or a label only (N-terminal biotin on a linker: ado-ado)

pKd | Binder
4.01 | QSPPNIYYKV [EFNB3, Q15768]
4.06 | NASRTRITFV [MCM7, P33993]

Molecular target: TJP1_2, Q07157
Sequence (Q07157 181-274): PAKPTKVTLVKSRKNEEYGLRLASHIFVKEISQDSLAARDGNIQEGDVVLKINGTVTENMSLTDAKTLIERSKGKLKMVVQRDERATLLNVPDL
Test: holdup assay
Design: key: below the threshold = too weak to quantify, mostly under pKd 3.1 to 4
Details: plain residues with an end cap or a label only (N-terminal biotin on a linker: ado-ado)

pKd | Binder
below the threshold | QSPPNIYYKV [EFNB3, Q15768]
3.62 | NASRTRITFV [MCM7, P33993]

From publication PMC9482650, “Quantitative fragmentomics allow affinity mapping of interactomes” (Nature Communications, 2022)
